# From US7255862
# Columns and labels:
# [1] = target: feline immunodeficiency virus (FIV) Env, Villefranche strain, expressed by ALVAC recombinants vCP242 / vCP255 (feline immunodeficiency virus, Villefranche strain); test: sandwich kinetic ELISA, plate coated with pooled FIV env-specific MAb 2 ug/well, env lysate 5 ug/well, control rabbit serum 1:100
# [2] = target: feline immunodeficiency virus (FIV) Env, Villefranche strain, expressed by ALVAC recombinants vCP242 / vCP255 (feline immunodeficiency virus, Villefranche strain); test: sandwich kinetic ELISA, plate coated with pooled FIV env-specific MAb 2 ug/well, env lysate 1 ug/well, control rabbit serum 1:100
# [3] = target: feline immunodeficiency virus (FIV) Env, Villefranche strain, expressed by ALVAC recombinants vCP242 / vCP255 (feline immunodeficiency virus, Villefranche strain); test: sandwich kinetic ELISA, plate coated with pooled FIV gag-specific MAb 2 ug/well (mismatched capture control), env lysate 1 ug/well, control rabbit serum 1:100
# [4] = target: feline immunodeficiency virus (FIV) Env, Villefranche strain, expressed by ALVAC recombinants vCP242 / vCP255 (feline immunodeficiency virus, Villefranche strain); test: sandwich kinetic ELISA, plate coated with pooled FIV env-specific MAb 2 ug/well, env lysate 0.2 ug/well, control rabbit serum 1:100
# [5] = target: feline immunodeficiency virus (FIV) Env, Villefranche strain, expressed by ALVAC recombinants vCP242 / vCP255 (feline immunodeficiency virus, Villefranche strain); test: sandwich kinetic ELISA, plate coated with pooled FIV gag-specific MAb 2 ug/well (mismatched capture control), env lysate 5 ug/well, control rabbit serum 1:100
# [6] = target: feline immunodeficiency virus (FIV) Env, Villefranche strain, expressed by ALVAC recombinants vCP242 / vCP255 (feline immunodeficiency virus, Villefranche strain); test: sandwich kinetic ELISA, plate coated with pooled FIV gag-specific MAb 2 ug/well (mismatched capture control), env lysate 0.2 ug/well, control rabbit serum 1:100
substance,measurement,setting,value
Rabbit A039 prebleed serum,KELISA (mOD/min),[1],0.9 mOD/min
same,KELISA (mOD/min),[2],0.7 mOD/min
same,KELISA (mOD/min),[3],1.2 mOD/min
same,KELISA (mOD/min),[4],0.9 mOD/min
same,KELISA (mOD/min),[5],1 mOD/min
same,KELISA (mOD/min),[6],1 mOD/min
